# In the supplement of paper PMC12764529:
# ± gives the half width of the 95% confidence interval.
# Test: folding stability dG unfold from chymotrypsin proteolysis; higher = more stable
# How it was run: (§1)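 Mini-proteins designed to be under 80 residues and free of cysteine were carried in a PA-tagged cDNA display construct and digested with trypsin and with chymotrypsin. Each protease was applied at 11 threefold-diluted concentrations, alongside a no-protease condition, before sequencing. K50 came from Bayesian fitting of the sequencing counts, and unfolding free energy was obtained by comparing it with a sequence-predicted unfolded-state K50 and a shared folded-state K50, for each protease separately or for both together. Designs were retained only if their AlphaFold2 dimer inter-PAE exceeded 15.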
row,Sequence,folding stability dG unfold [kcal/mol]
1,SAGGSAGGKKKYLVKITIKYVDKKTGKLVKEETITVEVSEEELEELLKKLPPGAEITKIEIYKLSAGGSAGG [r6_776_TrROS_Hall],3.58 ± 0.071
2,SMKIKSIKIEPIRIGDEEYFLIPIEVDGEEIPPEEVKRLVEELFEKLGLPLDPVLLEDPESDIVLVLARGSA [r9_717_TrMRF],1.34 ± 0.11
3,SAGGSAGGSSPSTSSERRIELPGGEEAEVFFYPSSGKILVRFPDREVEYYVEDDGKIVKKDPLSAGGSAGGS [r12_47_JUSTAS],0.0525 ± 0.21
4,KIPITIEEDPEDKMYELRVPDGMPIQIQRSKDGYRVSIWNPDNGKPREIPITKKDLKDLLSNPGFWIEIYKS [r1_18_TrROS],1.56 ± 0.078
5,SAGGSAGGSAGGMKKPILLPGETEEDVLERIKKLPKDYKVTIEKLDDDKLLVTITSPKLGSAGGSAGGSAGG [r7_662_JUSTAS],-0.5 ± 0.51
6,SAGGSAGGSMSTSLSLSSAPGVSVVTTAHPDSTVVTEQPPDGSRVVRVLDPAGELVAEEAVAPSAGGSAGGS [r12_471_JUSTAS],-0.302 ± 0.16
7,SAGGSAGGSAGGLEELKKGFKKPVFVAKIEKEVRLLPNGDLIVRYKIEGPDLELELVFSSAGGSAGGSAGGS [r10_160_TrMRF],3.56 ± 0.14
8,MTLLIPLPPAFPDLTPEQVLDLLRELFLSPDEEATAEENPETGSVTVTVRRGDEEYVFTFYPDGYLVLEPGS [r1_131_TrMRF],2.799 ± 0.016
9,SAGGSAGGSAGMVYITKGKDGIWYEAEVDPTKPGAKVKVRHPLTGKEEEITPAEVVAVPPSAGGSAGGSAGG [r11_822_TrMRF],-0.546 ± 0.6
10,KTLVIHAKTPEEILAAIKEAIKEGKTVVIEMSPELIEALKEAGFEIEKIEEVEEIDGKKIYRVVIEVKPKES [r1_173_TrROS_Hall],3.36 ± 0.058
11,SAGGSAGGSKLTIMVKMDSAEDAEEEARSLLKELGIKPGMKEVKVSMFPRGNEYYAHVEIKFKSAGGSAGGS [r12_7_TrROS],0.759 ± 0.15
12,SAGGSAGGMKVTTEGNAAGTNTVTVSYPDGSSVTRTLAPDDVVEVPVGGEVVLTVTVTANPDLPSAGGSAGG [r6_583_JUSTAS],0.0101 ± 0.061
13,SAGGSASTVTRTRTIPGSGLTVEITETPLPDGTYSYTVTFYAPDSALKTTPKTAAPDELPEEELLSSAGGSA [r15_147_JUSTAS],1.48 ± 0.042
14,SDKLAKLLEDELEKAGYEVVSVEVRYDPEKGLLYVNALVRRKDDPTWYRVRAVYNPETDELLEVKIEPLPSA [r9_814_TrMRF],6.29 ± 0.11
15,SMKFTITLSNPVDGTTETIPLDVPLEELVKIIKEAHEKGGTVTITGLPEELAKEIAEKSGLDVSINPAPGSA [r9_1207_JUSTAS],2.57 ± 0.053
16,SAGGSAGGSASMAPPEVLSLPVEILEKSPDGSVTVLVPETGEVLTFPSPKVNVTPDGTLNLSSAGGSAGGSA [r18_89_JUSTAS],-0.611 ± 0.16
17,SAGGSAGGSMELVIPKEEVEKMSEEVVKKIKELAKKANISISETEDSLVIPIKKVSEKVIKELSAGGSAGGS [r12_945_JUSTAS],0.497 ± 0.045
18,SAGGSAGGSMEPRPVVITFRDPEGNFIGTVELPAEFESEEEALAAAEAVRAANPGYTVEIEGLSAGGSAGGS [r20_201_JUSTAS],1.98 ± 0.033
19,SAGGSAGGSAGGSMTVTVTLKDGSTRTFAVPADAPLTLEQLEAAGYPAADIAEVTVTAESAGGSAGGSAGGS [r10_565_JUSTAS],3.292 ± 0.021
20,SAGGSAKKEVYKINIKVYNKNGKKVKEIKIELPEELKGKTIEEIAKELAKKLNIEKIEVKIEPVKPSAGGSA [r15_333_TrROS_Hall],3.19 ± 0.1
21,SAGGSAGGSAGGWYIYFPNHYYPIKKITINPGGNIEIEFPNGNERTFDNVSIMPPGQEISAGGSAGGSAGGS [r10_1151_TrROS],0.105 ± 0.14

# Test: folding stability dG unfold (combined trypsin and chymotrypsin); higher = more stable
# How it was run: as §1
row,Sequence,folding stability dG unfold [kcal/mol]
1,SAGGSAGGSAGSVTVTFISLEEGERYLVLTELRFGDYGIESRSTRIEVSDEKLEELKKAFSAGGSAGGSAGG [r11_47_TrMRF],2 ± 0.12
2,SAGGTIKITIKAENLTEEEKEELAKKIADELKKKGYKVKKVEVTVEKEKEKTVTITLENGKKIEVKLSAGGS [r8_485_TrROS_Hall],2.31 ± 0.18
3,SAGGMMYLKLKVKNKNGEEIEVLIEFDEKTGKAYIYNKKTGKKIEMTLEELLKQENIEIEEIEPLPEPSAGG [r13_994_TrROS_Hall],4.07 ± 0.13
4,SAGGSAPAKVEPLRVKIEFTPPNGEKHTFPMEIHRVHDNAIEIQDGGQPIRIPPNLDNIQITDIELSAGGSA [r15_510_TrROS],0.356 ± 0.14
5,SAGGSAVPTVRATFRYPDGLVAELEVPVLPDGTPRVVLRVGGVEREVSLEELARLPPEFELVSVDPSAGGSA [r2_431_TrMRF],0.826 ± 0.072
6,SAGMDFPESYTPIASNGKTLVFKSPTEVYIVLYSPEGGSEVRSFTPGDESVLNPFLEELKKSDYVNLNISAG [r14_12_JUSTAS],0.995 ± 0.093
7,SARILRVEFEPFPLTERARLRLEVEDEDNDFPYEVDIELEVLPDPSEVRLRLVVRRPDGSRRELELRLFSAG [r14_10_TrMRF],4.23 ± 0.091
8,SAGGRIKDIEPIPPNDPPGQKLTIKFPDGGPIEIPMEKEPDENGPYYYKFKLQVNNGEIEVMFRIPNSAGGS [r8_360_TrROS],5.18 ± 0.32
9,SAGMKVILIIAPEEKIEEIFEEIKKIAEEHGLDLKLDKIEPLPEKGYLVIVTVKNPESDETTVILVLVPSAG [r5_41_TrMRF],3.55 ± 0.12
10,SAGGSETVRVEVEVELENGYRVRVEMEFDLETKEMTMRVEVEPVLELSPEELEKLKKLLEELGIEVSAGGSA [r2_304_TrROS_Hall],3.12 ± 0.17
